Drawing on publication PMC3991395 (2014), this text covers stoichiometry N and Kd for 3 molecules.

Data set [1] concerns the target RNF4 C55S, C59S tagged with glycine-cysteine at its C terminus (RNF4-C196). Nature of the data set: cross-linking; disulfide dimer formation of RNF4-C196; 0.062, 0.12, 0.25, 0.5 and 1 μM protein, room temperature, 2 hr, no reducing agents, no SUMO; nonreducing SDS-PAGE and western blotting with an RNF4 antibody; the species is sensitive to DTT. (In general: A western blot detects proteins with antibodies after separation by electrophoresis.)

Data set [2] concerns the target T1, RNF4 wild type, recombinant, with N-terminal fusions of ECFP or YFP, O88846.
T1 chain: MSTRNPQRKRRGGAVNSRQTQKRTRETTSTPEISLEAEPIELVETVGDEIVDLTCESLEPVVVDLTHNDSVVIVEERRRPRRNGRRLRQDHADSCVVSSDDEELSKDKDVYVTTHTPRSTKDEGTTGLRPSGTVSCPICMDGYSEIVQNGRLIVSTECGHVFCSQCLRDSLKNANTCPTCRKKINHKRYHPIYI
Nature of the data set: FRET or BRET; in vitro FRET in the presence of poly-SUMO-2; YFP-RNF4 fixed at 0.5 μM, ECFP-RNF4 increased in 0.05 μM increments from 0 to 0.5 μM; triplicates; apparent Kd from a fit to a single binding site model. To be noted: remark: other sources report otherwise. A general note: Bioluminescence resonance energy transfer reports proximity on the nanometre scale.

The target of data set [3] is T1, RNF4 wild type, recombinant, with …. Nature of the data set: FRET or BRET; in vitro FRET in the absence of poly-SUMO-2; YFP-RNF4 fixed at 0.5 μM, ECFP-RNF4 increased in 0.05 μM increments from 0 to 0.5 μM; triplicates; fit to a single binding site model; monomer to dimer. To be noted: remark: other sources report otherwise.
The data set “FRET; with polySUMO-2” concerns the molecule itself. Nature of the data set: FRET; with polySUMO-2.

Changes are numbered by the printed parent chain. Names may count otherwise.

In turn, “RNF4 C55S, C59S tagged with glycine-cysteine at its C terminus (RNF4-C196) (enzyme)” showed a stoichiometry N in data set [1] of 2.

B1: RNF4 wild type, recombinant, with N-terminal fusions of ECFP or YFP, O88846 1-194 (enzyme)
chain: T1 chain
As for B1, the Kd is 60 nM in data set [2] and 180 nM in data set [3].

B2: RNF4 I194A, dimerization-deficient mutant, recombinant, with N-terminal fusions of ECFP or YFP (enzyme)
chain: T1 chain with I194A
Molecule B2 had a Kd in “FRET; with polySUMO-2” of 166 nM.

The term stoichiometry N denotes the number of molecules, sites or subunits per partner or assembly.
